Results as given in article PMC11614891.
Square brackets hold non-standard residues; d marks the D form. Ends that are not written are not given here. * marks the point of attachment. Biotin = O=C1N[C@H]2[C@H](CS[C@H]2CCCCC(=O)*)N1

Biological target: L-19437_(D-Pep-1)
Experiment: ITC; MicroCal PEAQ-ITC, 19 injections; peptide titrated over the binder (L-19437 15 uM, D-Pep-1 150 uM); PBS pH 7.4; One Set of Sites mode

B1: D-Pep-1 (peptide)
peptide: Biotin-[dD][dE][dH][dE][dL][dL][dE][dT][dA][dA][dR][dW][dF][dY][dE][dI][dA][dK][dR][dA]
  Kd: 48.7 nM
  stoichiometry N: 0.938 sites
